Data reported in article PMC12241816.

Target: T1, recombinant KDM5B (human), Q9UGL1
T1 chain: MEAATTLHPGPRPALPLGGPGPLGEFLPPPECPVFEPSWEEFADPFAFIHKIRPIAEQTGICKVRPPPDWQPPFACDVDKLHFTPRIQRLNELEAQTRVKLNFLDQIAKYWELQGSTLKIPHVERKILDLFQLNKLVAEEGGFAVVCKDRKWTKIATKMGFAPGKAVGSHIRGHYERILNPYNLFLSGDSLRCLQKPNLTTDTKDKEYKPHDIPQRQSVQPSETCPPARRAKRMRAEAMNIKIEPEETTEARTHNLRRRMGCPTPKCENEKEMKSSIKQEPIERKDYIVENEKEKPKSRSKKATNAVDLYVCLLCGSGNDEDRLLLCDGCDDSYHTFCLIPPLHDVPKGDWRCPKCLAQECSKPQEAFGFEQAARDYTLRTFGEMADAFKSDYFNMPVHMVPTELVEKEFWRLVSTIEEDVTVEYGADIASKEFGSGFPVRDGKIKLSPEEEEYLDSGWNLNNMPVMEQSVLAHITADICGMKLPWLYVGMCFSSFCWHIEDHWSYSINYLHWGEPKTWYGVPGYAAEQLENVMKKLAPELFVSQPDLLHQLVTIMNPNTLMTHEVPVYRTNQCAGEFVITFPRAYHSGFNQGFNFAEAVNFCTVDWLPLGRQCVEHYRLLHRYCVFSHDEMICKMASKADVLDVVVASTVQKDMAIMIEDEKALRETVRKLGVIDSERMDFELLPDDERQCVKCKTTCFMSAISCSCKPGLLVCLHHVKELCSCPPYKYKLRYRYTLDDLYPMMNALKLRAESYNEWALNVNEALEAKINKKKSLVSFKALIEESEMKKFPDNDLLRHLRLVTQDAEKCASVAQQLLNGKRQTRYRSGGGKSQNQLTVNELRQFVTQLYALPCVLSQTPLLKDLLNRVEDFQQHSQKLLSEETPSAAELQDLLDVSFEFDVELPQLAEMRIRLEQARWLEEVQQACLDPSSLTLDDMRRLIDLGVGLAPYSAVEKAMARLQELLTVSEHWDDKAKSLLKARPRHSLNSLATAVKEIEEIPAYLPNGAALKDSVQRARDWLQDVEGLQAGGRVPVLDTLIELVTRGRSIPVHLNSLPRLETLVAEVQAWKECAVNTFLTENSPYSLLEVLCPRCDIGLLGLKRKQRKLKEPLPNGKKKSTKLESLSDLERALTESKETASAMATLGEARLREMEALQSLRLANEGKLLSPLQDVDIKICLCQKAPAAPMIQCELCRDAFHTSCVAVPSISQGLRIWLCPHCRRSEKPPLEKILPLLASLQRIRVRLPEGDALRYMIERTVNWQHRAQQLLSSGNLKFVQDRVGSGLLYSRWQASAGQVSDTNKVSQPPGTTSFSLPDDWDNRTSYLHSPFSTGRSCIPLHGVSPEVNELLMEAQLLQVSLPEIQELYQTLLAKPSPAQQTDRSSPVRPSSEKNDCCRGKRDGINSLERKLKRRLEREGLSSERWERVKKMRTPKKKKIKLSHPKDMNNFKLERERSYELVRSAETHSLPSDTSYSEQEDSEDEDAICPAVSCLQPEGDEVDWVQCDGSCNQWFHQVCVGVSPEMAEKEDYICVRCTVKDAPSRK
Assay: native gel or EMSA
Conditions: remark: other sources report otherwise

B1: recombinant KDM5B, Q9UGL1 1-1544 (natural protein)
chain: T1 chain
- stoichiometry N: 2
